Experimental data reported in patent US20220193132A1 (NATIONAL RESEARCH COUNCIL OF CANADA, published 2022).

Assays:
[1] = biological target: T1, EGFRvIII, full length, overexpressed on glioblastoma cells (human, UniProt P00533 298-623); test: flow cytometry dose-response on U87MG-EGFRvIII cells, apparent Kd
T1 construct: Cells overexpress full length EGFRvIII (deletion of exons 2-7 of EGFR); Cell line (U87MG or DKMG) is named under assay; also called U87MG-EGFRvIII; U87vIII
Experimental: Prior to analysis, cells were plated such that they were not more than 80% confluent on the day of analysis. Unless otherwise stated, all media are kept are 4° C. and all incubations are performed on wet ice. Cells were washed in PBS, harvested by the addition of cell dissociation buffer (Sigma), centrifuged and resuspended in complete medium at a cell density of 2×10⁶ cells/mL. Fifty μL/well of cells were distributed in a polypropylene v-bottom 96 well plate and serial 1/3 dilutions of purified mAbs starting at 100 nM were added and incubated for 2 hours. […] Cells were washed and re-suspended in medium containing Propidium iodide to exclude dead cells from analysis. Samples were filtered through a 60 μm nylon mesh filter plate (Millipore, Ireland) to remove cell aggregates. Flow cytometry analyses were performed on 2,000 viable single-cells events gated on forward scattering, side scattering parameters and propidium iodide dye exclusion using a BD-LSRFortessa flow cytometer (Becton-Dickinson Biosciences, CA, USA) and a standard filter set using BD FACSDiva™ acquisition software, according to manufacturer's instructions.
Specific detection of antibody binding was calculated as the mean fluorescent intensity of binding to each primary antibody after background level subtraction of the mean fluorescent intensity of binding of mouse IgG control. The data were analyzed with GraphPad Prism v 6.0 software using one-site specific binding with Hill slope non-linear regression curve fit model to determine Bmax (maximum specific binding) and Kdₐₚₚ (concentration needed to achieve a half-maximum binding at equilibrium) for each mAb tested.

[2] = biological target: T1, EGFRvIII, full length, overexpressed on …; test: cell-based or functional assay
[3] = biological target: T2, EGFRvIII fragment amino acid residues 15 to 37, displayed on yeast (human); test: yeast surface display, flow cytometry
T2 construct: also called aa 15-37; fragment 15-37
T2 peptide: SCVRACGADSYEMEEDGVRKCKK
Text: (§1) Assessment of the binding of anti-EGFRvIII mAbs to the fusion proteins expressed on yeast cell surface was done by flow cytometry analysis. Briefly, yeast cells were labeled with both the anti-hEGFRvIII mAb and chicken anti-Myc antibody, the latter being used to monitor the level of expression of the fusion protein. Following a wash step, binding of the primary antibodies is probed by a two-color indirect fluorescence labeling using secondary antibodies specific for mouse and chicken antibodies, respectively.

[4] = biological target: T1, EGFRvIII, full length, overexpressed on …; test: cell-based or functional assay; remark: listed apart in the source
[5] = biological target: T3, recombinant human EGFRvIII protein (extracellular domain), denatured (human, UniProt P00533 298-623); test: ELISA Exp 2, purified mAb 1 ug/ml;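 further: ELISA of purified mAb binding to plate-coated antigen, native or heat/DTT-denatured, with pNPP substrate developed for 30 min and incubations at room temperature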
T3 construct: Same protein as m21 after 95 C for 5 min in PBS with 40 mM DTT (denatured, reduced); also called EGFRvIII Denatured
Experimental: (§2) Pre- and post-immune sera titers of animals were assessed by ELISA on recombinant EGFRvIII protein. Unless otherwise stated, all incubations were performed at room temperature. […] Microplates were washed three times in PBS and blocked for 30 min with PBS containing 1% bovine serum albumin (BSA, Sigma Cat #A7030). Blocking buffer was removed and 25 μl of serial dilutions of sera samples were added. […] After a 1-h incubation, microplates were washed 4 times and 25 μl of p-nitrophenyl phosphate (pNPP) substrate (Sigma-Aldrich Canada Co., Oakville, ON) at 1 mg/ml in carbonate buffer at pH 9.6 was added and further incubated for 30 min.
(§3) Antigens at 1-2 mg/ml were incubated at 95° C. for 5 min in PBS containing DTT at a final concentration of 40 mM. They were then incubated on ice for 5 min and diluted at their final coating concentration for ELISA purpose.
(§4) ELISA was performed as described above (serum titer determination) using 25 μl of mAb supernatant (Exp 1) or purified mAb at 1 μg/ml (Exp 2).

[6] = biological target: T4, recombinant human EGFRvIII protein (extracellular domain), native (human, UniProt P00533 298-623); test: ELISA Exp 2, purified mAb 1 ug/ml;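 further: ELISA of purified mAb binding to plate-coated antigen, native or heat/DTT-denatured, with pNPP substrate developed for 30 min and incubations at room temperature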
T4 construct: also called hEGFRvIII
Experimental: as §2, §3, §4

[7] = biological target: T5, recombinant human wild type EGFR protein (extracellular domain), denatured (human, UniProt P00533 25-645); test: ELISA Exp 2, purified mAb 1 ug/ml;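 further: ELISA of purified mAb binding to plate-coated antigen, native or heat/DTT-denatured, with pNPP substrate developed for 30 min and incubations at room temperature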
T5 construct: Same protein as m23 after 95 C for 5 min in PBS with 40 mM DTT (denatured, reduced); also called wt EGFR Denatured
Experimental: as §2, §3, §4

[8] = biological target: T6, recombinant human wild type EGFR protein (extracellular domain), native (human, UniProt P00533 25-645); test: ELISA Exp 2, purified mAb 1 ug/ml;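 further: ELISA of purified mAb binding to plate-coated antigen, native or heat/DTT-denatured, with pNPP substrate developed for 30 min and incubations at room temperature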
T6 construct: also called wt EGFR; EGFR WT
Experimental: as §2, §3, §4

[9] = biological target: T3, recombinant human EGFRvIII protein …; test: ELISA Exp 1, mAb supernatant
Experimental: as §2, §3, §4

[10] = biological target: T4, recombinant human EGFRvIII protein …; test: ELISA Exp 1, mAb supernatant
Experimental: as §2, §3, §4

[11] = biological target: T5, recombinant human wild type EGFR …; test: ELISA Exp 1, mAb supernatant
Experimental: as §2, §3, §4

[12] = biological target: T6, recombinant human wild type EGFR …; test: ELISA Exp 1, mAb supernatant
Experimental: as §2, §3, §4

[13] = biological target: T7, EGFRvIII amino acid residues 15 to 37 with Val32 to Ala mutation (human); test: yeast display flow cytometry, Myc-normalized;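 further: Anti-EGFRvIII monoclonal antibodies tested by flow cytometry on yeast displaying alanine-substituted fragments, two-color indirect fluorescence with anti-Myc signal tracking fusion protein expression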
T7 construct: mutation is already in the entry
T7 peptide: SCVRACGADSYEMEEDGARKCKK
Text: as §1
(§5) To further characterize mAb epitopes within the EGFRvIII 15-37 region, an alanine scan of this region was performed, and modified fragments were expressed at the surface of the yeast. […] The resulting peptides were expressed at the surface of the yeast and each anti-EGFRvIII mAbs was tested on the corresponding yeast mutant strain by flow cytometry analysis. Thus, this assay determined the contribution of each amino acid(s) in the monoclonal antibody binding.

[14] = biological target: T8, EGFRvIII amino acid residues 15 to 37 with Glu26 to Ala mutation (human); test: yeast display flow cytometry, Myc-normalized;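 further: Anti-EGFRvIII monoclonal antibodies tested by flow cytometry on yeast displaying alanine-substituted fragments, two-color indirect fluorescence with anti-Myc signal tracking fusion protein expression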
T8 construct: mutation is already in the entry
T8 peptide: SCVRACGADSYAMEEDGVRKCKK
Text: as §1, §5

[15] = biological target: T9, EGFRvIII amino acid residues 15 to 37 with Met27 to Ala mutation (human); test: yeast display flow cytometry, Myc-normalized;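 further: Anti-EGFRvIII monoclonal antibodies tested by flow cytometry on yeast displaying alanine-substituted fragments, two-color indirect fluorescence with anti-Myc signal tracking fusion protein expression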
T9 construct: mutation is already in the entry
Text: as §1, §5

[16] = biological target: T10, EGFRvIII amino acid residues 15 to 37 with Glu28 to Ala mutation (human); test: yeast display flow cytometry, Myc-normalized;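 further: Anti-EGFRvIII monoclonal antibodies tested by flow cytometry on yeast displaying alanine-substituted fragments, two-color indirect fluorescence with anti-Myc signal tracking fusion protein expression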
T10 construct: mutation is already in the entry
T10 peptide: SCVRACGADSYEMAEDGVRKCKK
Text: as §1, §5

[17] = biological target: T11, EGFRvIII amino acid residues 15 to 37 with Arg33 to Ala mutation (human); test: yeast display flow cytometry, Myc-normalized
T11 construct: mutation is already in the entry
T11 peptide: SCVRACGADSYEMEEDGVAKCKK
Text: as §1, §5

[18] = biological target: T12, EGFRvIII amino acid residues 15 to 37 with Ser15 to Ala mutation (human); test: yeast display flow cytometry, Myc-normalized
T12 construct: mutation is already in the entry
T12 peptide: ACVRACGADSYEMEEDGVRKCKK
Text: as §1, §5

[19] = biological target: T13, EGFRvIII amino acid residues 15 to 37 with Lys34 to Ala mutation (human); test: yeast display flow cytometry, Myc-normalized
T13 construct: mutation is already in the entry
T13 peptide: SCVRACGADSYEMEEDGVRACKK
Text: as §1, §5

[20] = biological target: T14, EGFRvIII amino acid residues 15 to 37 with Lys36 to Ala mutation (human); test: yeast display flow cytometry, Myc-normalized
T14 construct: mutation is already in the entry
T14 peptide: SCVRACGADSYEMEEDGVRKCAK
Text: as §1, §5

[21] = biological target: T15, EGFRvIII amino acid residues 15 to 37 with Asp23 to Ala mutation (human); test: yeast display flow cytometry, Myc-normalized
T15 construct: mutation is already in the entry
T15 peptide: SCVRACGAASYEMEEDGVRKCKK
Text: as §1, §5

[22] = biological target: T16, EGFRvIII amino acid residues 15 to 37 with Ser24 to Ala mutation (human); test: yeast display flow cytometry, Myc-normalized
T16 construct: mutation is already in the entry
T16 peptide: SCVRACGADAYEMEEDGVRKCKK
Text: as §1, §5

[23] = biological target: T17, EGFRvIII amino acid residues 15 to 37 with Glu29 to Ala mutation (human); test: yeast display flow cytometry, Myc-normalized
T17 construct: mutation is already in the entry
T17 peptide: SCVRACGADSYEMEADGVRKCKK
Text: as §1, §5

[24] = biological target: T18, EGFRvIII amino acid residues 15 to 37 with Val17 to Ala mutation (human); test: yeast display flow cytometry, Myc-normalized
T18 construct: mutation is already in the entry
T18 peptide: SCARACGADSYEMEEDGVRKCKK
Text: as §1, §5

[25] = biological target: T19, EGFRvIII amino acid residues 15 to 37 with Gly31 to Ala mutation (human); test: yeast display flow cytometry, Myc-normalized
T19 construct: mutation is already in the entry
T19 peptide: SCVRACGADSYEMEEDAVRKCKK
Text: as §1, §5

[26] = biological target: T20, EGFRvIII amino acid residues 15 to 37 with Cys16 to Ala mutation (human); test: yeast display flow cytometry, Myc-normalized
T20 construct: mutation is already in the entry
T20 peptide: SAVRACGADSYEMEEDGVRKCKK
Text: as §1, §5

[27] = biological target: T21, EGFRvIII amino acid residues 15 to 37 with Tyr25 to Ala mutation (human); test: yeast display flow cytometry, Myc-normalized
T21 construct: mutation is already in the entry
T21 peptide: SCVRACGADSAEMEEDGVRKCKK
Text: as §1, §5

[28] = biological target: T22, EGFRvIII amino acid residues 15 to 37 with Lys37 to Ala mutation (human); test: yeast display flow cytometry, Myc-normalized
T22 construct: mutation is already in the entry
T22 peptide: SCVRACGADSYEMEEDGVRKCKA
Text: as §1, §5

[29] = biological target: T23, EGFRvIII amino acid residues 15 to 37 with Asp30 to Ala mutation (human); test: yeast display flow cytometry, Myc-normalized
T23 construct: mutation is already in the entry
T23 peptide: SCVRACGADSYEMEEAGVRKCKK
Text: as §1, §5

[30] = biological target: T24, EGFRvIII amino acid residues 15 to 37 with Cys35 to Ala mutation (human); test: yeast display flow cytometry, alanine scan
T24 construct: mutation is already in the entry
T24 peptide: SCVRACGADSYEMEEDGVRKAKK
Text: as §1, §5

[31] = biological target: T25, EGFRvIII amino acid residues 15 to 37 with Arg18 to Ala mutation (human); test: yeast display flow cytometry, alanine scan
T25 construct: mutation is already in the entry
T25 peptide: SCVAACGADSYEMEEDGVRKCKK
Text: as §1, §5

[32] = biological target: T26, EGFRvIII amino acid residues 15 to 37 with Cys20 to Ala mutation (human); test: yeast display flow cytometry, alanine scan
T26 construct: mutation is already in the entry
T26 peptide: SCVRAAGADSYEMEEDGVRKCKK
Text: as §1, §5

[33] = biological target: T27, EGFRvIII amino acid residues 15 to 37 with Gly21 to Ala mutation (human); test: yeast display flow cytometry, alanine scan
T27 construct: mutation is already in the entry
T27 peptide: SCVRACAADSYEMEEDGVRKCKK
Text: as §1, §5

T9 sequence (peptide, as listed by the source, change not shown): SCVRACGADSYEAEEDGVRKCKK

B1: F263-4B3 (antibody, V domains shown)
VH: EVQLQQSGPELVKPGSSVKISCKASGYTFTDYNMDWVKQSHGKSLEWIGTINPNNGGTSYNQKFKGKATLTVDKSSNTAYMELRSLTSEDSAVYYCARGYDYDLWFAYWGQGTLVTVSA
VL: EIVLTQSPALMAASPGEKVTITCSVSSSISSSNLHWYQQKSETSPKPWIYGTSNLASGVPVRFSGSGSGTSYSLTISSMEAEDAATYYCQQWSSYPLTFGAGTKLELE
notes: Mouse hybridoma mAb
Kd [1]: 21.2 nM | % internalization (pHrodo surrogate assay, vs 225 mAb) [2]: 61% | binding result [3]: binds | % survival (DM1 secondary-conjugate ADC surrogate assay, vs mouse IgG) [4]: 83% | ELISA absorbance 405 nm [5]: 0.603 A405 | ELISA absorbance 405 nm [6]: 1.19 A405 | ELISA absorbance 405 nm [7]: 0.003 A405 | ELISA absorbance 405 nm [8]: 0.066 A405 | ELISA absorbance 405 nm [9]: 1.74 A405 | ELISA absorbance 405 nm [10]: 1.5 A405 | ELISA absorbance 405 nm [11]: 0.041 A405 | ELISA absorbance 405 nm [12]: 1.09 A405 | % of binding vs wild-type fragment 15-37 [13]: 92.4% | % of binding vs wild-type fragment 15-37 [14]: 102% | % of binding vs wild-type fragment 15-37 [15]: 101% | % of binding vs wild-type fragment 15-37 [16]: 86.7% | % of binding vs wild-type fragment 15-37 [17]: 68.4% | % of binding vs wild-type fragment 15-37 [18]: 94.7% | % of binding vs wild-type fragment 15-37 [19]: 136% | % of binding vs wild-type fragment 15-37 [20]: 99.2% | % of binding vs wild-type fragment 15-37 [21]: 94.1% | % of binding vs wild-type fragment 15-37 [22]: 194% | % of binding vs wild-type fragment 15-37 [23]: 71.6% | % of binding vs wild-type fragment 15-37 [24]: 146% | % of binding vs wild-type fragment 15-37 [25]: 49.9% | % of binding vs wild-type fragment 15-37 [26]: 169% | % of binding vs wild-type fragment 15-37 [27]: 98.8% | % of binding vs wild-type fragment 15-37 [28]: 170% | % of binding vs wild-type fragment 15-37 [29]: 94.3% | binding result [30]: no binding (tested: 0-15% of wild-type binding) | binding result [31]: no binding (tested: 0-15% of wild-type binding) | binding result [32]: no binding (tested: 0-15% of wild-type binding) | binding result [33]: no binding (tested: 0-15% of wild-type binding)
